{"source": "patent US20250051474A1", "about": "“ANTI-CD97 ANTIBODIES AND ANTIBODY-DRUG CONJUGATES” (New York University, priority 2023, published 2025)", "key": {"[1]": {"target": "T1, CD97 (ADGRE5) isoform 2 ectodomain, purified and biotinylated (human, UniProt P48960 21-552, biotinylated in vitro using the BirA enzyme)", "T1 construct": "the whole entry for isoform 2 is named here; also called CD97 isoform 2", "T1 sequence": "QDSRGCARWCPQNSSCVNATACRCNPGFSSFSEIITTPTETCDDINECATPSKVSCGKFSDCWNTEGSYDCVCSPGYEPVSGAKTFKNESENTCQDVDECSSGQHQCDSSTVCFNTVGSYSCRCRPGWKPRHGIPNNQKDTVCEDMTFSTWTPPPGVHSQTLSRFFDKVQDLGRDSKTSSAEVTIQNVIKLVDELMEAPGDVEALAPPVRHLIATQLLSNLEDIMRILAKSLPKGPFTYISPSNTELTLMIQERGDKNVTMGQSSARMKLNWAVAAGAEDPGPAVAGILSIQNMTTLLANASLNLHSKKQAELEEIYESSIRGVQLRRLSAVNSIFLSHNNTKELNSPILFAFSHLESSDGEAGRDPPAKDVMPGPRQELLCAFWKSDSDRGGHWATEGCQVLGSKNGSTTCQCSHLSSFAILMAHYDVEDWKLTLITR", "experiment": "bead-based binding titration (biotinylated antigen on streptavidin beads, flow cytometry), 1:1 fit"}, "[2]": {"target": "T2, CD97 (ADGRE5) isoform 1 ectodomain, purified and biotinylated (human, UniProt P48960 21-552, limits assumed, biotinylated in vitro using the BirA enzyme)", "T2 construct": "the whole entry for isoform 1 is named here; also called CD97 isoform 1; Biotinylated CD97 isoform 1", "T2 sequence": "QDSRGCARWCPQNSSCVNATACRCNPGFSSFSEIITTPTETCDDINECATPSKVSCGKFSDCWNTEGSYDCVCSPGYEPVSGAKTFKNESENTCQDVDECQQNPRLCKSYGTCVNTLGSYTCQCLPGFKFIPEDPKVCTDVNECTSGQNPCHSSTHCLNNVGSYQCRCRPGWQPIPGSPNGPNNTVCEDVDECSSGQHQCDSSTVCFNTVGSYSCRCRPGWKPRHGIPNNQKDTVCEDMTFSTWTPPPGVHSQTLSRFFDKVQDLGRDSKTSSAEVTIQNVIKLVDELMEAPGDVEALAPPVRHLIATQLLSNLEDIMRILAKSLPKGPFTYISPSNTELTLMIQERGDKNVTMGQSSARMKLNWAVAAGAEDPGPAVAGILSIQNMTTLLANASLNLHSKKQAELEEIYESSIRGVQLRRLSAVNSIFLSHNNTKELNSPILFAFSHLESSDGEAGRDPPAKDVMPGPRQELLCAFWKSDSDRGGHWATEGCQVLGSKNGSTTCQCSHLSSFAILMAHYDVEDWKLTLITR", "experiment": "bead-based binding titration (biotinylated antigen on streptavidin beads, flow cytometry), 1:1 fit"}, "[3]": {"target": "T3, EMR2 (EGF-like module-containing mucin-like hormone receptor-like 2) isoform 4 ectodomain, purified and … (UniProt Q9UHX3-4 24-447, limits assumed, biotinylated in vitro using the BirA enzyme)", "T3 construct": "extracellular domain; Close homolog of CD97 used as specificity control", "T3 sequence (looked up)": "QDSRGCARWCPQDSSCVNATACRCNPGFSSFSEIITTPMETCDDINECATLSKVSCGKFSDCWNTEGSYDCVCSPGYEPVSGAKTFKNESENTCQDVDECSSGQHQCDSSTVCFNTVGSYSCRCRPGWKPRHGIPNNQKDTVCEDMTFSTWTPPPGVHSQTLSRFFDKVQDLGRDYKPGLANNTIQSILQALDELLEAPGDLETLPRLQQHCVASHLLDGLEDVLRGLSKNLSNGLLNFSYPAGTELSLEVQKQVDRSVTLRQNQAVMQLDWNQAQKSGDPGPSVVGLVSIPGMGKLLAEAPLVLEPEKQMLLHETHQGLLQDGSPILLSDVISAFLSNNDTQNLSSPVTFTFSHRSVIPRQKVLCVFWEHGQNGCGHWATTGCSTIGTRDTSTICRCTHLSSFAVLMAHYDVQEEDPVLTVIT", "experiment": "bead-based binding titration (biotinylated antigen on streptavidin beads, flow cytometry)"}, "CD97 isoform 1": {"target": "T4, CD97 isoform 1 (Homo sapiens, UniProt P48960)", "T4 construct": "The genes encoding the ectodomains of CD97 (isoforms 1 and 2) and EMR2 (isoforms 1 and 4); inferred from IMAC purification; inferred from BirA biotinylation; made in house; host or cells: expi293F", "T4 sequence (P48960 21-552 limits assumed)": "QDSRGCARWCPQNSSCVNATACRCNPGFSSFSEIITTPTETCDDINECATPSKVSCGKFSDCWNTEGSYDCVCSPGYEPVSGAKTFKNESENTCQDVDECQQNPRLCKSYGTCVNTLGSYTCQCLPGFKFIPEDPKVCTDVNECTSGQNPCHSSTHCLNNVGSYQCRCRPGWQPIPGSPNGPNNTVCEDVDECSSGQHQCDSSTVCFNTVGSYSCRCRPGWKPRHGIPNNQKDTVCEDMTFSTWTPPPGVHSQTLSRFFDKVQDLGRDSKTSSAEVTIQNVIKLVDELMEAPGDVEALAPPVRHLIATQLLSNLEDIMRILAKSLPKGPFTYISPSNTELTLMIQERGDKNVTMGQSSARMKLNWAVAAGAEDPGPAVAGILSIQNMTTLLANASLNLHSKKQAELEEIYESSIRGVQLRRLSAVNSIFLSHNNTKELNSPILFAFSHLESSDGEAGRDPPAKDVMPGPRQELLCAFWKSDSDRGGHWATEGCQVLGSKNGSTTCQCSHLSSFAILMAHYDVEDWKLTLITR", "experiment": "Bead-based binding assay of Fab clones", "details": "for binding of A8 CDRH3 mutants to CD97 isoform 1: Fab format, compared with wild type A8", "protocol": "Binding titration of the Fab clones was performed by a bead binding assay, as described previously (7,8). Briefly, biotinylated antigens were immobilized on Dynabeads M-280 streptavidin (Thermo Fisher). The biotinylated Fab clones were titrated into a solution containing the antigen-coated beads. After incubation, the beads were washed three times and incubated with anti-human F(ab′)2-Alexa Fluor 647 (Jackson ImmunoResearch). The beads were further washed three times and analyzed on a HyperCyt (Intellicyt).\nThe genes encoding the ectodomains of CD97 (isoforms 1 and 2) and EMR2 (isoforms 1 and 4) (FIG. 1) were synthesized (Integrated DNA Technologies) and cloned into the mammalian expression vector pBCAG. The expi293F cells (Thermo Fisher) were transfected with the vectors using the ExpiFectamine 293 transfection kit (Thermo Fisher) according to the manufacturer's protocol. The cells were incubated at 37° C. with 8% CO2. The proteins were purified from the cell culture supernatant by immobilized metal affinity chromatography (IMAC). The purified proteins were biotinylated in vitro using the BirA enzyme in the presence of 0.5 mM Biotin and 10 mM ATP. After the removal of the BirA enzyme by IMAC, the proteins were further purified by size exclusion chromatography using a Superdex 200 10/300 Increase (Cytiva). The purity of the proteins was confirmed by SDS-PAGE."}}, "data": [{"molecule": "Fab 2X10 (Fab, V domains shown, second discovery campaign; biotinylated Fab in the bead assay; also called Antibody Clone 2X10) VH: EVQLVESGGGLVQPGGSLRLSCAASGFTFSSSSIHWVRQAPGKGLEWVASISSSSGSTSYADSVKGRFTISADTSKNTAYLQMNSLRAEDTAVYYCARSYWDMYIYWYYYVKQSRGMDYWGQGTLVTVSS VL: DIQMTQSPSSLSASVGDRVTITCRASQSVSSAVAWYQQKPGKAPKLLIYSASSLYSGVPSRFSGSRSGTDFTLTISSLQPEDFATYYCQQSSSSLITFGQGTKVEIKR", "values": [{"measurement": "Kd", "setting": "[1]", "value": 41, "unit": "nM"}, {"measurement": "Kd", "setting": "[2]", "value": 54, "unit": "nM"}, {"measurement": "binding result", "setting": "[3]", "value": "no binding (tested: 100 nM)"}]}, {"molecule": "Fab 2Z3 (Fab, V domains shown, second discovery campaign; biotinylated Fab in the bead assay; also called Antibody Clone 2Z3) VH: EVQLVESGGGLVQPGGSLRLSCAASGFTFSSSSIHWVRQAPGKGLEWVASISSSSGSTSYADSVKGRFTISADTSKNTAYLQMNSLRAEDTAVYYCARVLLGKFWYYNYYEYSAMDYWGQGTLVTVSS VL: DIQMTQSPSSLSASVGDRVTITCRASQSVSSAVAWYQQKPGKAPKLLIYSASSLYSGVPSRFSGSRSGTDFTLTISSLQPEDFATYYCQQSSSSLITFGQGTKVEIKR", "values": [{"measurement": "Kd", "setting": "[1]", "value": 7.1, "unit": "nM"}, {"measurement": "Kd", "setting": "[2]", "value": 7.1, "unit": "nM"}, {"measurement": "binding result", "setting": "[3]", "value": "no binding (tested: 50 nM)"}]}, {"molecule": "C27: anti-CD97 antibody clone, VL SEQ ID NO: 21, VH SEQ ID NO: 46 (antibody, V domains shown) VH: EVQLVESGGGLVQPGGSLRLSCAASGFTLSSSSIHWVRQAPGKGLEWVASIYSYYGSTYYADSVKGRFTISADTSKNTAYLQMNSLRAEDTAVYYCARYRGNMYYWESWYGSYWALDYWGQGTLVTVSS VL: DIQMTQSPSSLSASVGDRVTITCRASQSVSSAVAWYQQKPGKAPKLLIYSASSLYSGVPSRFSGSRSGTDFTLTISSLQPEDFATYYCQQSSSSLITFGQGTKVEIKRTV", "values": [{"measurement": "binding to CD97 isoform 1", "setting": "CD97 isoform 1; Fab clones of the first antibody discovery campaign, purified biotinylated antigen on beads", "value": "bound only to CD97 isoform 1"}]}, {"molecule": "A8 N100bHE: A8 mutant, VL SEQ ID NO: 9, VH SEQ ID NO: 109 (antibody, V domains shown) VH: EVQLVESGGGLVQPGGSLRLSCAASGFTISSYSIHWVRQAPGKGLEWVASISPYYGSTSYADSVKGRFTISADTSKNTAYLQMNSLRAEDTAVYYCARSWYYYEQEPYWYQKEEQALDYWGQGTLVTVSS VL: DIQMTQSPSSLSASVGDRVTITCRASQSVSSAVAWYQQKPGKAPKLLIYSASSLYSGVPSRFSGSRSGTDFTLTISSLQPEDFATYYCQQSVYSPVTFGQGTKVEIKRTV", "values": [{"measurement": "binding of A8 CDRH3 mutants to CD97 isoform 1", "setting": "CD97 isoform 1", "value": "substantially reduced or abolished binding to CD97"}]}, {"molecule": "A8 W100eHA: A8 mutant, VL SEQ ID NO: 9, VH SEQ ID NO: 110 (antibody, V domains shown) VH: EVQLVESGGGLVQPGGSLRLSCAASGFTISSYSIHWVRQAPGKGLEWVASISPYYGSTSYADSVKGRFTISADTSKNTAYLQMNSLRAEDTAVYYCARSWYYYEQNPYAYQKEEQALDYWGQGTLVTVSS VL: DIQMTQSPSSLSASVGDRVTITCRASQSVSSAVAWYQQKPGKAPKLLIYSASSLYSGVPSRFSGSRSGTDFTLTISSLQPEDFATYYCQQSVYSPVTFGQGTKVEIKRTV", "values": [{"measurement": "binding of A8 CDRH3 mutants to CD97 isoform 1", "setting": "CD97 isoform 1", "value": "substantially reduced or abolished binding to CD97"}]}, {"molecule": "Fab 2A5 (Fab, V domains shown, second discovery campaign; biotinylated Fab in the bead assay; also called Antibody Clone 2A5) VH: EVQLVESGGGLVQPGGSLRLSCAASGFTFSSSSIHWVRQAPGKGLEWVASISSSYGSTSYADSVKGRFTISADTSKNTAYLQMNSLRAEDTAVYYCARGWAYSYWYYSHYYEYEVALDYWGQGTLVTVSS VL: DIQMTQSPSSLSASVGDRVTITCRASQSVSSAVAWYQQKPGKAPKLLIYSASSLYSGVPSRFSGSRSGTDFTLTISSLQPEDFATYYCQQSKFSSPVTFGQGTKVEIKR", "values": [{"measurement": "Kd", "setting": "[1]", "value": 2, "unit": "nM"}, {"measurement": "Kd", "setting": "[2]", "value": 2.6, "unit": "nM"}, {"measurement": "binding result", "setting": "[3]", "value": "no binding (tested: 50 nM)"}]}, {"molecule": "Fab 2X12 (Fab, V domains shown, second discovery campaign; biotinylated Fab in the bead assay; also called Antibody Clone 2X12) VH: EVQLVESGGGLVQPGGSLRLSCAASGFTISSSSIHWVRQAPGKGLEWVASISSSSSYTSYADSVKGRFTISADTSKNTAYLQMNSLRAEDTAVYYCARMDISYYYYEWGFESAYYGMDYWGQGTLVTVSS VL: DIQMTQSPSSLSASVGDRVTITCRASQSVSSAVAWYQQKPGKAPKLLIYSASSLYSGVPSRFSGSRSGTDFTLTISSLQPEDFATYYCQQWWGPELVTFGQGTKVEIKR", "values": [{"measurement": "Kd", "setting": "[1]", "value": 29, "unit": "nM"}, {"measurement": "Kd", "setting": "[2]", "value": 22, "unit": "nM"}, {"measurement": "binding result", "setting": "[3]", "value": "no binding (tested: 100 nM)"}]}]}
